Experimental data as given in patent US11643670B2, “Methods of enhancing chromosomal homologous recombination” (Massachusetts Institute of Technology, priority 2018, dated 2023).

System: maternal Chd2 locus
Assay: Donor-free interchromosomal homologous recombination (ICHR) in IVF-derived Chd2^R1684H/+ embryos
Format: cell-based, mouse
Description: tracrRNA, crRNAs, and ssODNs were synthesized by Integrated DNA Technologies (TABLE 1). All injection mixtures were prepared in a final volume of 50 μL according to the following methodology: Using RNase-free water, reagents, and consumables, crRNA (final concentration 0.61 μM), tracrRNA (final concentration 0.61 μM), and ultrapure Tris-HCl, pH 7.39 (final concentration 10 mM, ThermoFisher) were mixed and incubated at 95° C. for 5 minutes. The mixtures were cooled to room temperature for 10 minutes on the benchtop, and then, EnGen Cas9-NLS S. pyogenes (New England Biolabs) was added to a final concentration of 30 ng/μL. The mixtures were incubated at 37° C. for 15 minutes before adding any remaining components: ssODN (final concentration 3 ng/μL or 30 ng/μL), RAD51 (Creative Biomart, final concentration 10 ng/μL). Injection mixtures were stored on ice and briefly heated to 37° C. prior to injection. For experiments utilizing RS-1, embryos were cultured in KSOM-AA (EMD Millipore MR-121-D) with […] RS-1 (Sigma) dissolved in DMSO or DMSO (Sigma, 1:1000) for 24 hours, washed, and cultured in EmbryoMax FHM HEPES Buffered Medium (Sigma) until collection for genotyping.
For experiments using wildtype recombinant proteins, the following proteins were used: RAD51 (Creative Biomart RAD51-134H), USP1/WDR48 (Creative Biomart USP1&WDR48-1067H), BCCIP (Origene TP303061), XRCC1 (TP304952), XRCC4 (Origene TP312684), DMC1 (Origene TP318311). For experiments using mutant RAD51, custom RAD51 preparations were produced by Creative Biomart according to their standard protocol for producing the wildtype RAD51 used in all other experiments. Mutant DNA sequences used for cloning are described in TABLE 2. All RAD51 mutants were modeled in human RAD51 transcript variant 4 (NCBI accession NM_001164269), as this is the transcript variant of the wildtype RAD51-134H protein used in all other experiments.
In vitro fertilization was performed using FERTIUP® Mouse Preincubation Medium and CARD MEDIA (Kyudo Company) according to the manufacturer's protocol. Non-virgin Chd2^R1684H/R1684H males that were >8 weeks old were used as sperm donors. Following IVF, embryos were cultured for 8 hours and then injected using the PNI protocol described below.
For all experiments except those described in FIG. 6, the male pronucleus was injected. Injections performed for the CPI portion of FIG. 6 were targeted to the cytoplasm. All microinjections were performed using a Narishige Micromanipulator, Nikon Eclipse TE2000-S microscope, and Eppendorf 5242 microinjector. Individual zygotes were injected with 1-2 pL of injection mixture using an “automatic” injection mode set according to needle size and adjusted for clear increase in pronuclear volume. Following injections, cells were cultured in KSOM-AA until collection for genotyping. For experiments giving rise to F0 animals, embryos were surgically implanted into pseudopregnant CD-1 females (Charles River Laboratories, Strain Code 022) 24-hours post-injection and allowed to develop normally until natural birth.
Embryos were collected at morula-to-blastocyst stage in 4 μL nuclease-free water. After collection, 4 μL of 2× embryo digestion buffer was added to each sample (final concentrations: 125 μg/mL proteinase K, 100 mM Tris-HCl pH 8.0, 100 mM KCl, 0.02% gelatin, 0.45% Tween-20, 60 μg/mL yeast tRNA) and embryos were lysed for 1 hour at 56° C. Proteinase K was inactivated via incubation at 95° C. for 10 minutes and DNA was stored at −20° C. until use.
Chd2^R1684H genotyping was performed via a two-step, nested approach. Except for experiments described in FIGS. 3A-3G, all 8 μL of embryo DNA were used as input for the initial, long round of PCR. Genotyping of mouse pups and adult animals was performed using 2 μL of purified tail DNA. For all embryo genotyping, reactions mixtures were set up in a UV-sterilized laminar flow hood using sterile reagents and filter tips to avoid contamination. […]

B1: RAD51: recombinant human strand exchange protein RAD51 (Creative Biomart RAD51-134H), transcript variant 4 (protein, UniProt Q06609 2-339, looked up)
DNA repair protein RAD51 …: AMQMQLEANADTSVEEESFGPQPISRLEQCGINANDVKKLEEAGFHTVEAVAYAPKKELINIKGISEAKADKILAEAAKLVPMGFTTATEFHQRRSEIIQITTGSKELDKLLQGGIETGSITEMFGEFRTGKTQICHTLAVTCQLPIDRGGGEGKAMYIDTEGTFRPERLLAVAERYGLSGSDVLDNVAYARAFNTDHQTQLLYQASAMMVESRYALLIVDSATALYRTDYSGRGELSARQMHLARFLRMLLRLADEFGVAVVITNQVVAQVDGAAMFAADPKKPIGGNIIAHASTTRLYLRKGRGETRICKIYDSPCLPEAEAMFAINADGVGDAKD
ICHR observed, share of injected embryos (PNI at ~8 hpf of Cas9/crRNA/tracrRNA, no donor, 26% in control injected embryos): 74%
indel-to-ICHR ratio (compared to control embryos): drastic decrease
overall indel rate (compared to control embryos): drastic decrease
